The text below walks through data of patent US20240166695A1, “PEPTIDIC POSITIVE ALLOSTERIC MODULATORS TARGETING TRPV1” (priority 2021, published 2024).

Test [1] has as its target TRPV1-YFP. As to the kind of experiment: spectraFRET in live HEK293 cells, CFP on design, YFP on TRPV1; indistinguishable from CFP+YFP negative control.
Test [2] addresses TRPV1-YFP. As to the kind of experiment: FRET ratio regression, design-CFP and TRPV1-YFP co-expressed in HEK293 cells. Also on record: Apparent KD (FRET ratio fit): unit not given here.
Test [3] concerns the target TRPV1-YFP. As to the kind of experiment: spectraFRET in live HEK293 cells, CFP on design, YFP on TRPV1.

B1: De4-CFP (designed binder, not shown: large carriers)
chain: LPESPRFAQKIWQQSVIGDYLARFKNDRVKALKAMEDSSNNSSMHRFAEFFAKAFEDLHRYLEEL
For the molecule B1, the FRET efficiency with TRPV1-YFP [1] came out at 3.8%. In addition, in the test with TRPV1-YFP [2], the Apparent KD (FRET ratio fit) stood at 9.5e+09.

B2: De1-CFP (designed binder, not shown: large carriers)
chain: NGYSSEDKLRIAKRHLLPKQIERNALKKGELFVSEFAILGIILFYTDEAGVRGLEREISKLCRKAVKQLLLDKSTTSSHASGFHLHDYLGVMR
Regarding B2, in the test with TRPV1-YFP [2], the Apparent KD (FRET ratio fit) was 120000 and the FRET ratio max worked out at 3.86.

B3: De2-CFP (designed binder, not shown: large carriers)
chain: NGYWSEDKERIAKRHLLPKQIERNALKKGELKVWEFAIFGIILFYTWEAGVRGLEREISKLCRKAVKQLLLDKSTTRSWASGFHLHDYLGVMR
In the test with TRPV1-YFP [3], B3 displayed an FRET efficiency of 7.4%. Moreover, in the test with TRPV1-YFP [2], the Apparent KD (FRET ratio fit) came out at 75000 and the FRET ratio max came out at 2.35.
